Source: patent publication US20200264182A1, “METHOD FOR DETECTING PROSTATE CANCER” (J-OIL MILLS, INC., priority 2017, published 2020)

Experiments:
[1] = target: serum fucosylated PSA (prostate specific antigen) (human) (UniProt P07288); assay: sandwich ELISA, anti-PSA antibody capture, biotin-lectin detection, pH 9.6; serum of Healthy 6
[2] = target: serum fucosylated PSA (prostate specific antigen) (human) (UniProt P07288); assay: sandwich ELISA, anti-PSA antibody capture, biotin-lectin detection, pH 9.6; subject samples B, subgroup GS7, n=11
[3] = target: serum fucosylated PSA (prostate specific antigen) (human) (UniProt P07288); assay: sandwich ELISA, anti-PSA antibody capture, biotin-lectin detection, pH 9.6; serum of Prostate cancer 5 (GS 7)
[4] = target: serum fucosylated PSA (prostate specific antigen) (human) (UniProt P07288); assay: sandwich ELISA, anti-PSA antibody capture, biotin-lectin detection, pH 9.6; serum of Prostate cancer 1 (GS 4)
[5] = target: serum fucosylated PSA (prostate specific antigen) (human) (UniProt P07288); assay: sandwich ELISA, anti-PSA antibody capture, biotin-lectin detection, pH 9.6; subject samples B, subgroup GS6, n=9
[6] = target: serum fucosylated PSA (prostate specific antigen) (human) (UniProt P07288); assay: sandwich ELISA, anti-PSA antibody capture, biotin-lectin detection, pH 9.6; sera of the healthy person group (n=7)
[7] = target: serum fucosylated PSA (prostate specific antigen) (human) (UniProt P07288); assay: sandwich ELISA, anti-PSA antibody capture, biotin-lectin detection, pH 9.6; serum of Healthy 1
[8] = target: serum fucosylated PSA (prostate specific antigen) (human) (UniProt P07288); assay: sandwich ELISA, anti-PSA antibody capture, biotin-lectin detection, pH 9.6; serum of Prostate cancer 6 (GS 7)
[9] = target: serum fucosylated PSA (prostate specific antigen) (human) (UniProt P07288); assay: sandwich ELISA, anti-PSA antibody capture, biotin-lectin detection, pH 9.6; serum of Healthy 7
[10] = target: serum fucosylated PSA (prostate specific antigen) (human) (UniProt P07288); assay: sandwich ELISA, anti-PSA antibody capture, biotin-lectin detection, pH 9.6; sera of subgroup Negative (GS5 or less), n=2
[11] = target: serum fucosylated PSA (prostate specific antigen) (human) (UniProt P07288); assay: sandwich ELISA, anti-PSA antibody capture, biotin-lectin detection, pH 9.6; serum of Prostate cancer 2 (GS 5)
[12] = target: serum fucosylated PSA (prostate specific antigen) (human) (UniProt P07288); assay: sandwich ELISA, anti-PSA antibody capture, biotin-lectin detection, pH 9.6; sera of subgroup GS7, n=2
[13] = target: serum fucosylated PSA (prostate specific antigen) (human) (UniProt P07288); assay: sandwich ELISA, anti-PSA antibody capture, biotin-lectin detection, lectin reaction pH 7.4; serum of Prostate cancer 4 (GS6)
[14] = target: serum fucosylated PSA (prostate specific antigen) (human) (UniProt P07288); assay: sandwich ELISA, anti-PSA antibody capture, biotin-lectin detection, pH 9.6; serum of Healthy 2
[15] = target: serum fucosylated PSA (prostate specific antigen) (human) (UniProt P07288); assay: sandwich ELISA, anti-PSA antibody capture, biotin-lectin detection, pH 9.6; sera of the prostate cancer patient group (n=9)
[16] = target: serum fucosylated PSA (prostate specific antigen) (human) (UniProt P07288); assay: sandwich ELISA, anti-PSA antibody capture, biotin-lectin detection, pH 9.6; serum of Prostate cancer 9 (GS 8)
[17] = target: serum fucosylated PSA (prostate specific antigen) (human) (UniProt P07288); assay: sandwich ELISA, anti-PSA antibody capture, biotin-lectin detection, pH 9.6; serum of Healthy 3
[18] = target: serum fucosylated PSA (prostate specific antigen) (human) (UniProt P07288); assay: sandwich ELISA, anti-PSA antibody capture, biotin-lectin detection, pH 9.6; subject samples B, subgroup Negative, n=9
[19] = target: serum fucosylated PSA (prostate specific antigen) (human) (UniProt P07288); assay: sandwich ELISA, anti-PSA antibody capture, biotin-lectin detection, pH 9.6; serum of Healthy 4
[20] = target: serum fucosylated PSA (prostate specific antigen) (human) (UniProt P07288); assay: sandwich ELISA, anti-PSA antibody capture, biotin-lectin detection, pH 9.6; serum of Prostate cancer 8 (GS 8)
[21] = target: serum fucosylated PSA (prostate specific antigen) (human) (UniProt P07288); assay: sandwich ELISA, anti-PSA antibody capture, biotin-lectin detection, pH 9.6; sera of subgroup GS8 or more, n=3
[22] = target: serum fucosylated PSA (prostate specific antigen) (human) (UniProt P07288); assay: sandwich ELISA, anti-PSA antibody capture, biotin-lectin detection, pH 9.6; serum of Prostate cancer 3 (GS 6)
[23] = target: serum fucosylated PSA (prostate specific antigen) (human) (UniProt P07288); assay: sandwich ELISA, anti-PSA antibody capture, biotin-lectin detection, pH 9.6; serum of Healthy 5
[24] = target: serum fucosylated PSA (prostate specific antigen) (human) (UniProt P07288); assay: sandwich ELISA, anti-PSA antibody capture, biotin-lectin detection, lectin reaction pH 9.6; serum of Healthy 1
[25] = target: serum fucosylated PSA (prostate specific antigen) (human) (UniProt P07288); assay: sandwich ELISA, anti-PSA antibody capture, biotin-lectin detection, pH 9.6; sera of subgroup GS6, n=2
[26] = target: serum fucosylated PSA (prostate specific antigen) (human) (UniProt P07288); assay: sandwich ELISA, anti-PSA antibody capture, biotin-lectin detection, pH 9.6; serum of Prostate cancer 7 (GS 8)
[27] = target: serum fucosylated PSA (prostate specific antigen) (human) (UniProt P07288); assay: sandwich ELISA, anti-PSA antibody capture, biotin-lectin detection, lectin reaction pH 7.4; serum of Healthy 1
[28] = target: serum fucosylated PSA (prostate specific antigen) (human) (UniProt P07288); assay: sandwich ELISA, anti-PSA antibody capture, biotin-lectin detection, pH 9.6; serum of Prostate cancer 4 (GS 6)
[29] = target: serum fucosylated PSA (prostate specific antigen) (human) (UniProt P07288); assay: sandwich ELISA, anti-PSA antibody capture, biotin-lectin detection, pH 9.6; subject samples B, subgroup GS8-9, n=6
[30] = target: serum fucosylated PSA (prostate specific antigen) (human) (UniProt P07288); assay: sandwich ELISA, anti-PSA antibody capture, biotin-lectin detection, lectin reaction pH 9.6; serum of Prostate cancer 4 (GS6)

“Pholiota squarrosa lectin (PhoSL), biotin-labeled” was tested. Which PhoSL reaction value [1] did it give?
The PhoSL reaction value was 39.7 U/mL.

And the PhoSL reaction value (mean value) [2]?
The PhoSL reaction value (mean value) was 120 U/mL.

What about the PhoSL reaction value (median value) [2] of the same substance?
The PhoSL reaction value (median value) was 211 U/mL.

What about the PhoSL reaction value [3] of the same substance?
Its PhoSL reaction value is 116 U/mL.

And the PhoSL reaction value [4]?
Its PhoSL reaction value is 116 U/mL.

And the PhoSL reaction value (mean value) [5]?
Its PhoSL reaction value (mean value) is 182 U/mL.

What about the PhoSL reaction value (median value) [5] of the same substance?
The PhoSL reaction value (median value) was 189 U/mL.

And the PhoSL reaction value (average value) [6]?
The PhoSL reaction value (average value) was 57.3 U/mL.

And the PhoSL reaction value (median value) [6]?
Its PhoSL reaction value (median value) is 55.9 U/mL.

What about the PhoSL reaction value [7] of the same substance?
The PhoSL reaction value was 51.9 U/mL.

What about the PhoSL reaction value [8] of the same substance?
Its PhoSL reaction value is 168 U/mL.

What about the PhoSL reaction value [9] of the same substance?
The PhoSL reaction value was 59 U/mL.

What about the PhoSL reaction value (mean value) [10] of the same substance?
The PhoSL reaction value (mean value) was 116 U/mL.

What about the PhoSL reaction value (median value) [10] of the same substance?
The PhoSL reaction value (median value) was 116 U/mL.

What about the PhoSL reaction value [11] of the same substance?
Its PhoSL reaction value is 117 U/mL.

What about the PhoSL reaction value (mean value) [12] of the same substance?
Its PhoSL reaction value (mean value) is 142 U/mL.

What about the PhoSL reaction value (median value) [12] of the same substance?
Its PhoSL reaction value (median value) is 142 U/mL.

And the PhoSL reaction value [13]?
Its PhoSL reaction value is 108 U/mL.

And the PhoSL reaction value [14]?
Its PhoSL reaction value is 55.9 U/mL.

What about the PhoSL reaction value (average value) [15] of the same substance?
The PhoSL reaction value (average value) was 145 U/mL.

What about the PhoSL reaction value (median value) [15] of the same substance?
Its PhoSL reaction value (median value) is 126 U/mL.

What about the PhoSL reaction value [16] of the same substance?
The PhoSL reaction value was 251 U/mL.

What about the PhoSL reaction value [17] of the same substance?
The PhoSL reaction value was 63.9 U/mL.

And the PhoSL reaction value (mean value) [18]?
The PhoSL reaction value (mean value) was 204 U/mL.

And the PhoSL reaction value (median value) [18]?
The PhoSL reaction value (median value) was 178 U/mL.

What about the PhoSL reaction value [19] of the same substance?
Its PhoSL reaction value is 74.9 U/mL.

And the PhoSL reaction value [20]?
Its PhoSL reaction value is 130 U/mL.

What about the PhoSL reaction value (mean value) [21] of the same substance?
The PhoSL reaction value (mean value) was 130 U/mL.

What about the PhoSL reaction value (median value) [21] of the same substance?
The PhoSL reaction value (median value) was 169 U/mL.

And the PhoSL reaction value [22]?
The PhoSL reaction value was 104 U/mL.

And the PhoSL reaction value [23]?
The PhoSL reaction value was 55.8 U/mL.

What about the PhoSL reaction value [24] of the same substance?
The PhoSL reaction value was 51.9 U/mL.

What about the PhoSL reaction value (mean value) [25] of the same substance?
Its PhoSL reaction value (mean value) is 142 U/mL.

And the PhoSL reaction value (median value) [25]?
Its PhoSL reaction value (median value) is 142 U/mL.

And the PhoSL reaction value [26]?
The PhoSL reaction value was 126 U/mL.

What about the PhoSL reaction value [27] of the same substance?
The PhoSL reaction value was 35.8 U/mL.

And the PhoSL reaction value [28]?
Its PhoSL reaction value is 179 U/mL.

And the PhoSL reaction value (mean value) [29]?
Its PhoSL reaction value (mean value) is 233 U/mL.

What about the PhoSL reaction value (median value) [29] of the same substance?
Its PhoSL reaction value (median value) is 240 U/mL.

And the PhoSL reaction value [30]?
The PhoSL reaction value was 179 U/mL.
